Test results as given in the domain aggregation screens of Martell et al. (2025).

Assay: soluble fraction after stress (log2 fold change); higher = more stays soluble; pooled small domains, quantitative proteomics
Settings: stress: pH 4
Outline: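 Custom libraries of small protein domains were pooled and measured with high-throughput quantitative proteomics after pH 4 stress. The read-out is the fold change in the amount of each domain that stays soluble after the acid stress, taken as a measure of aggregation propensity. Fold changes are on a log2 scale, and higher values mean more of the domain stayed soluble.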

Sequence: HMGAVPKNYFPAVEKGLQDSVQKGLLAGYPVVGVKAILYDGSYHPVDSSEMAFKTATIQAFKKGFMEA
- soluble fraction (log2): -0.0216

Sequence: HMGAYIPSYAPVDINAATHTVVRGDTVYNISKRYHVSQEDFRAWNGMADNTLSIGQVVKVKPAGYTAPK
- soluble fraction (log2): 0.22

Sequence: HMGDAVSRAYFALADDLLKGELTETVSEVLIRTRYELTSAQLQAVLHRIAQEGWAHKKPGYGWEFSAMLT
- soluble fraction (log2): -1.39

Sequence: HMGDEHYDTISAFIKSVRGSDPDAALYWLAKMILAGEDPRFILRRLIVLSGEDIGLADPQGI
- soluble fraction (log2): -0.346

Sequence: HMGDEPGAGYKWREDVLLRVMSEHGIDESARDDFVRHAVKFDDDDNLYLKKAEIIAAAEAWESSS
- soluble fraction (log2): -2.05

Sequence: HMGDFLLQVDFPPALLEMLPEGKRQAAIGVLSHDPRPAYQRTPGRVYGLNFAGHNIRFAVSENLLTVLEV
- soluble fraction (log2): -0.302

Sequence: HMGDFLLTPHRGRSADFVIGNPPYIRLEDVPNDISDAYRAEYASMPGRADIHVGFYEKGLDL
- soluble fraction (log2): -0.506

Sequence: HMGDFVIVPDLIGKTIEEFDSELNELNLKYIISDSGNYNPDFKINSVLDQLPNANSKVKGGRKIYITLNAS
- soluble fraction (log2): -1.48

Sequence: HMGDGAWQQGEGGRWWYKYNNGTYPKDRVVTIGGKKYGFDSEGWMLSDTTKAFGGTTYSFAADGVATAQA
- soluble fraction (log2): -0.247

Sequence: HMGDGYTYYYDDTVLALGFTKIGNDYYIFNTFSGKMYKDATMWVNDNPYGIKGGMHYFDASGKMFV
- soluble fraction (log2): -0.439

Sequence: HMGDIFTAEDAKERIDYSGVDGIMLARGIFGNPWLIRDIREYLEYGKILHPVTQLDRVNMAIEHTRKT
- soluble fraction (log2): -0.25

Sequence: HMGDIMLLFKENGKVYFLVGNQYTYVKNPTELSAIKTMMKQAGYDTHEHTNTTQVAYIKRLATE
- soluble fraction (log2): -0.419

Sequence: HMGDKVLIQTAQRLKKDLPFASIVSRFGGDEFLIFLPGISSTERVETIVKKTVFLFIAISTTLF
- soluble fraction (log2): -0.0999

Sequence: HMGDLKSLIQATMDDAGISIKPDAMDYLISHLGSDRLTTRAELDKLILYAGADDKLDLDSVVELVG
- soluble fraction (log2): -0.794

Sequence: HMGDLLTVDRVAATSGLGVDTIRYYQRLGLLDPPVRHGRRALYSTAHLDRLVEIRQLADEGFSLAQIATL
- soluble fraction (log2): -0.816

Sequence: HMGDLVFDFVHGVHKAAEVEKELVMQALRFTHGNVSRAARLIGMQRSSLRYRIERYRLDAFVMEVAN
- soluble fraction (log2): -0.0309

Sequence: HMGDPSSERNIQKSIFILIGEKALSVQDISRSLGMPNDIIDKALISGVERNLWLSSDKGEYYL
- soluble fraction (log2): -1.04

Sequence: HMGDRRSVFEQSVLDAIKSLVKQGELATTKAISDHIGTNYQGNVSRAITALLADNKIKKLPKEGVLQPYEA
- soluble fraction (log2): -0.00881

Sequence: HMGDSFLDHKKELQSMILSRLDLSREVPDEEIKDIIDELIIAQSKKLFLSLNDRGKLRQELFYSIRK
- soluble fraction (log2): -0.906

Sequence: HMGDSVLNDKLNTLAGLDEERFKWVLASLNPNNSYSTHSDKMSALMWLVSYFNDEADLKETVPPLPI
- soluble fraction (log2): -0.325

Sequence: HMGDTIFINNNFYVKHIVEFGETIDIISKIYDVSVNKILETNETSTKLYSGQSLFIPININV
- soluble fraction (log2): -1.99

Sequence: HMGDTLEIVVIYSNKQKAEEAVNNLKGKFEDLGYNFAIITVDTSKITQLAMESSIQYIEFPKSFYFSD
- soluble fraction (log2): -1.29

Sequence: HMGDVATVKLDNNGLLNMRKSDARGADIVARIPNGTVVQVLNRETEWTQVRYDGKEGYVMSSFLQFAE
- soluble fraction (log2): 0.0427

Sequence: HMGDVPESLVEKAGHSINAKIISAWGMTETGASTMTRPQDDPERAIYSDGVVLPLMDVRVVNDAGLA
- soluble fraction (log2): -0.271

Sequence: HMGDWEKALAQFAAHRLANGSTAFLDEMYPIFERILLQAALNKTGGRKIEAAELLGWGRNTLTRKLKELGF
- soluble fraction (log2): -1.01

Sequence: HMGDYERVPEYKGKLTSDLTMEDSQKFAFRFIWQNSDEDEGKIIDQDPPAGKSVAKGSEIVLYVSNG
- soluble fraction (log2): -0.0695

Sequence: HMGEAAIYRINILINNLNVRSGPGTLYPRLRRADFPGEYDIFEEKNGFGRISNTKSEWVSLNTQYVQRLT
- soluble fraction (log2): 0.158

Sequence: HMGEAIPVPDLKHKALTDAEHLVHELGLEIQVVDTGYVKSLPADYILGQSLAPGEKVKSGHIIYVTINSP
- soluble fraction (log2): 0.0193

Sequence: HMGEGTAVGKALKFLAAQGKKFAPELLDMAGSLTGVEALSKLGDAIKGDPELSELDKRILLAELETDAV
- soluble fraction (log2): -0.744

Sequence: HMGEIHALIPGLVSRLFVKPGDRVENGQGLLILEAMKMENEIDSPISGVVGKIYIKAGDKVEKGELIMEIN
- soluble fraction (log2): 0.115

Sequence: HMGEIVVPDLIGKSLTEATRILSDSTLTVGKVNYQISSTLLPNTVLDQYPAPGNKLNSGNTVDLFITKE
- soluble fraction (log2): -0.0586

Sequence: HMGEKTLSEKVYDRLKELIMDGELERGTKITETSIAKMFDVSPTPVREAFRKLASDGLIEVASWKGVIVKG
- soluble fraction (log2): 0.338

Sequence: HMGELYGTDQYKDGDAQDTNIGKLLEVNIDGKWQVATTGTSRFEFAGVMDDNGHKLIMISVLPEAKTV
- soluble fraction (log2): -0.647

Sequence: HMGEPLSPDARALTNVLRHYRGWAEPGELARKSGLGSRERVLTAAQSLVNAGLADIERGMVRPTAALMEVQ
- soluble fraction (log2): -0.0354

Sequence: HMGEPVASSREVAKRFGKEHKHVLAAIRQILVAENSATKFFHETAFEYRGQRFPEYLMNRDGFALLAMGF
- soluble fraction (log2): -1.35

Sequence: HMGEPVNSPMPGTILRVEVTQGAAVKEGQLLVVLEAMKMENEILAPKDGTVAQVVVQKGSHVETGSPLIVL
- soluble fraction (log2): -0.429

Sequence: HMGEQLALLERARTLLEDETLETEVQKELEMLLEDIEAARAEANATQLEDLFEELADLLFDLE
- soluble fraction (log2): -0.193

Sequence: HMGEQYYVLIDNKQNGPHNINAIQKMIDQNIVNRQTLIWKKGMTDWGNIMDDKDLKEMVNKIP
- soluble fraction (log2): 0.0559

Sequence: HMGERMELTLDNPREAIPVLDAMGFANYQVVDKEHIHIFERLNESALVNMELAKAGIPVKGISITSE
- soluble fraction (log2): -0.523

Sequence: HMGESEWIVKWRGEKRDEERLQESELVRDDPEHRISVVRPRDDVDASAWLNRWRKSRYVQYIQPNHRVTIS
- soluble fraction (log2): 0.0349

Sequence: HMGESFPYVAYATDSVRLRARPSSSATILTVIRKGDAVLITGADGSYKIVEYEGRKGYVVSAFLSSQET
- soluble fraction (log2): -0.00452

Sequence: HMGESVQVPSYVGMGFREAARKARARDFGVAVSDSIYVPGKPPGEIIAQDPKAESRVKEGRTIYFTVAK
- soluble fraction (log2): -0.0612

Sequence: HMGETAFRYALPLDQGEALKRSHVIRQSISPDDALATRVTVLEDVLDQTLRQPVQAGEVLLEDHFTR
- soluble fraction (log2): -0.682

Sequence: HMGETRWTYDDFGNILTEKAAPYSATEFLGKTYTYDTDNRYLKTVTDALGRTTTTLSYDKYGNPLSVMD
- soluble fraction (log2): -0.357

Sequence: HMGETWYEILEISSDATTEEIRQAYFEQARQYHPDTNPGELAREWFYQVQEAYETLSDPDRRRQYDESIKG
- soluble fraction (log2): -2.16

Sequence: HMGEVEVPDLVGIEAIQAKTLLFNSDFLIKEFYDYDPTQPIGVVIRQAPEAGTTQTIGDSVTITINRA
- soluble fraction (log2): -0.0721

Sequence: HMGEVISRSYPLLKTKAKPAEVSEALQKLIKAPATVTFDEKNEVFHINATRLQHTWAEGYFKGLHGK
- soluble fraction (log2): -0.172

Sequence: HMGEVPPGWSVEALAAIERDLAHHVGPVARVLVQRGARLHTTTDDLRSALANAITDDLARRRFMQP
- soluble fraction (log2): -0.635

Sequence: HMGFEALRSRHRITAREMEVLQHMLAGRSNAEIGHTLGLSERTVKTHITSIFNKLGVDSRAQLGYMLK
- soluble fraction (log2): 0.366

Sequence: HMGFLTKTQRLEILLHLKDEPYYNVEKLKELIKNRYGIVYQSSQSYYDLLKEAGLSWHQTQA
- soluble fraction (log2): 0.00834

Sequence: HMGFVTVTEVDTTADLKLARVYVSVLGPEEQWAKSFTALESARGFVWNWLRKHLDLRVTPQLAF
- soluble fraction (log2): -1.74

Sequence: HMGGASVTDQQIRDFVSAHTDDPMAIYKAAVANGISSARLAQVTGISIADIEAFVRKNNLPSF
- soluble fraction (log2): -0.206

Sequence: HMGGEEINMINLVGLSQSEAENQLAKLKLKIGQVTAEYSDKPSGTVLKQSISANNKVKKGADIDIVVSKG
- soluble fraction (log2): 0.207

Sequence: HMGGELLSLRRIGTLTGISYPTLLRYVARYGEQIPQTGTGRSRRFPPAAVPVFQELRATRGRAPRATA
- soluble fraction (log2): 0.0768

Sequence: HMGGEPKALLFAGVETREMAEITQRLEAADIPYEIREDGGSIYVARSEVFNARMMLSADGLPS
- soluble fraction (log2): 0.233

Sequence: HMGGFNATTLQNIEELRRSLSDADQFGRHEVIETIGGSDSRAGKLLKKMLEAGIIEQVKGHGKGRYRFKRT
- soluble fraction (log2): 0.0979

Sequence: HMGGGEYTVAKGDTLWKIAAQTLGSPTRYAEIYNLNKDVIEETARGRGKRDSSNGHWLFPGTALKIPGT
- soluble fraction (log2): -0.234

Sequence: HMGGGFLVPSLVGKSLEEARSLSELRGFKLEVGDYVISSEYPAGRVTRQNPANGAKGQEGDVIKVEVSS
- soluble fraction (log2): 0.153

Sequence: HMGGGRELGLDPETGKKISVRLGKFGPFVQLGESGEEDKPVFANLGKNQSIATLSLEEAIALLARPK
- soluble fraction (log2): 0.189

Sequence: HMGGGVSSSLAGNVFKVLLPAGSVVEQGQAVIVLEAMKMETEVNAPKSGSVSSVFVNEGDTVEVGDLLFAI
- soluble fraction (log2): -0.162

Sequence: HMGGKWKAIIIYHLKNGPKRFGELRRALISSTETVLSNQLKQLEQDGLVSRQVFGTKPPLKTVYSLTDFG
- soluble fraction (log2): -0.906

Sequence: HMGGKWKLRILLALENSAQDALRYGEIKNIVSGITDMMLSQSLRELTADGLIERRQYQEIPPKVEYRLS
- soluble fraction (log2): -0.868

Sequence: HMGGKWKPIILYYININSVARYSELKRFIPSINERMLTRQLRELEEDNLIERKVYPIVPPKVEYRLTEYGK
- soluble fraction (log2): 0.0222

Sequence: HMGGKWSMPIIYILSKGKMRFKELERSVEGINTRMLVKELKNMEANGIVTREVFPTVPPTVEYALT
- soluble fraction (log2): -0.178

Sequence: HMGGKYKGVIIGHLIDKTLRYNELQKLISHATPKMLIQQLKELEADGIIQRKLYPVVPPKTEYSLTERG
- soluble fraction (log2): -0.0376

Sequence: HMGGLAEGTKITLQNTVNVRASMGEDAEKIGTAYAGEKVTVIMSYAEGWTKVTWNDKTGYIKTSLL
- soluble fraction (log2): -1.04

Sequence: HMGGLAHPASGEEMEHLFAHLEGELLKSGFLFPPDKAAGMMRNIRAMLTRADFTDQEVRTLRGMIVALSRG
- soluble fraction (log2): -0.794

Sequence: HMGGNDALEIAKSNPQVIEVLGEPVTKDGMGSYSVNYKNGHKTSEATIPIEGPNGTATLHVKTSGSDDAL
- soluble fraction (log2): 0.22

Sequence: HMGGNKILTWKTDAATTRNQVPINERKEGLEISYKNEERNWVAEKYVGTSFSDDKWGVDYNWNQD
- soluble fraction (log2): -0.559

Sequence: HMGGPAGPDFTYTGDDLTRIDYDDGSYKVFTYDAGKLSQIDFTSGGTTTRKTFVYSGDTLIRVDQTI
- soluble fraction (log2): -1.43

Sequence: HMGGPEPIPAQIREGDTVYVTKFKQLGLVLKISEDTAEVQIGPLRATVAKTELSKVDATATEHR
- soluble fraction (log2): -0.0107

Sequence: HMGGQFVKVEVIAQIFGVTVRRVQQLTQEGVVKTTEIPGEGRRYELVPTIKTYIQYLSDKAY
- soluble fraction (log2): 0.0375

Sequence: HMGGTFLVRILDPALNIRAQPSLTARINGVIRDKSVYTIVATSFEPKTQITWGKLKSGAGWISIGSKYVKK
- soluble fraction (log2): 0.0406

Sequence: HMGGVTVQNRETHVNSTVNVRSEQTTESERVALAYQGDAITQIESYENGWSKVEYKGLSGYVMTEYL
- soluble fraction (log2): -0.819

Sequence: HMGGYLIGDVAQMVGLSRDALRFYEKKGIIRADKKENGYRYYSEDDIYRLMYILYHRKMNTSLEEIGGLMS
- soluble fraction (log2): -0.478
